For this test, the target named is T1, human GITR on cells (activated human T cells; 3A9-hGITR cells) (human, UniProt Q9Y5U5 26-241).
T1 chain: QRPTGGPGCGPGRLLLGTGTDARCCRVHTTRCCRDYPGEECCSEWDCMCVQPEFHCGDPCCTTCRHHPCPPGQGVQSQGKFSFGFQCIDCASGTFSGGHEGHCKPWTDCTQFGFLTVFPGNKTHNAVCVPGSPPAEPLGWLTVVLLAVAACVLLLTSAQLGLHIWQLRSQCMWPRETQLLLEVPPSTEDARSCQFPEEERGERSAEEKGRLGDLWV
The test can be described thus: FACS binding to activated human CD4 T cells.

B1: anti-GITR-IgG2-IgG1.1 (antibody)
heavy: QVQLVESGGGVVQPGRSLRLSCAASGFTFSSYGMHWVRQAPGKGLEWVAVIWYEGSNKYYADSVKGRFTISRDNSKNTLYLQMNSLRAEDTAVYYCARGGSMVRGDYYYGMDVWGQGTTVTVSSASTKGPSVFPLAPCSRSTSESTAALGCLVKDYFPEPVTVSWNSGALTSGVHTFPAVLQSSGLYSLSSVVTVPSSNFGTQTYTCNVDHKPSNTKVDKTVERKCCVECPPCPAPPVAGPSVFLFPPKPKDTLMISRTPEVTCVVVDVSHEDPEVKFNWYVDGVEVHNAKTKPREEQYNSTYRVVSVLTVLHQDWLNGKEYKCKVSNKALPSSIEKTISKAKGQPREPQVYTLPPSREEMTKNQVSLTCLVKGFYPSDIAVEWESNGQPENNYKTTPPVLDSDGSFFLYSKLTVDKSRWQQGNVFSCSVMHEALHNHYTQKSLSLSPG
light: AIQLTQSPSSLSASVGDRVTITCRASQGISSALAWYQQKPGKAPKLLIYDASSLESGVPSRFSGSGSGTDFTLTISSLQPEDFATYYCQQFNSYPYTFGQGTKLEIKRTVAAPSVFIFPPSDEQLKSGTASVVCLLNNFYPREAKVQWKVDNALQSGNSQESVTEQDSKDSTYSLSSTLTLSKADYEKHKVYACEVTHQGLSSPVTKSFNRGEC
Molecule B1 returned an EC50 of 163 pM.

B2: anti-GITR-IgG2 (antibody)
heavy: QVQLVESGGGVVQPGRSLRLSCAASGFTFSSYGMHWVRQAPGKGLEWVAVIWYEGSNKYYADSVKGRFTISRDNSKNTLYLQMNSLRAEDTAVYYCARGGSMVRGDYYYGMDVWGQGTTVTVSSASTKGPSVFPLAPCSRSTSESTAALGCLVKDYFPEPVTVSWNSGALTSGVHTFPAVLQSSGLYSLSSVVTVPSSNFGTQTYTCNVDHKPSNTKVDKTVERKCCVECPPCPAPPVAGPSVFLFPPKPKDTLMISRTPEVTCVVVDVSHEDPEVQFNWYVDGVEVHNAKTKPREEQFNSTFRVVSVLTVVHQDWLNGKEYKCKVSNKGLPAPIEKTISKTKGQPREPQVYTLPPSREEMTKNQVSLTCLVKGFYPSDIAVEWESNGQPENNYKTTPPMLDSDGSFFLYSKLTVDKSRWQQGNVFSCSVMHEALHNHYTQKSLSLSPGK
light: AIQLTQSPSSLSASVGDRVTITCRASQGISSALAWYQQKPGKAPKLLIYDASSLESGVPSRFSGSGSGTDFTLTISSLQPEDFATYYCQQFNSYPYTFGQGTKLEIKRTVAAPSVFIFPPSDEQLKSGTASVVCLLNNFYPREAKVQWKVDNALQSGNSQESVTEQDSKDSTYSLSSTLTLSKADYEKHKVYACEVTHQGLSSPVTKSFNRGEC
On to B2, for which the midpoint of the response, the EC50, lay at 277 pM.
